Experimental findings from patent EP4772193A1 (Teijin Pharma Limited, dated 2026) are described below.

Sequences and labels used below:
T1: recombinant human soluble gpNMB (recombinant human gpNMB-FLAG-His) (human, UniProt Q14956 23-498)
T1 sequence: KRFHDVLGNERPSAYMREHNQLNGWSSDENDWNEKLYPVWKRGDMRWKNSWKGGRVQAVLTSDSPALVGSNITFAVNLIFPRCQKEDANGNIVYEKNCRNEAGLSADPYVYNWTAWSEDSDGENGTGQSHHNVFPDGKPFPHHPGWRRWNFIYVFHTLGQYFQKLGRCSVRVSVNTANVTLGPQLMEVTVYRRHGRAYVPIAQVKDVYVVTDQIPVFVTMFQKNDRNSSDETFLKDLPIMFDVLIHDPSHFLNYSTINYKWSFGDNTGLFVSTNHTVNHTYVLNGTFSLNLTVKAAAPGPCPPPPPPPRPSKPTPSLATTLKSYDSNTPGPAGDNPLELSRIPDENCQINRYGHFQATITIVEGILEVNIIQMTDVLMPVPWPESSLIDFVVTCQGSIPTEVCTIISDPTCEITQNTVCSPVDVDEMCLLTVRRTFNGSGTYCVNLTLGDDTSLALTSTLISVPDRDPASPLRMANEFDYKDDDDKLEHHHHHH

T2: human gpNMB (Human Osteoactivin, His-tag, AcroBioSystems) (human, UniProt Q14956-2 23-486, limits assumed)
T2 sequence (looked up): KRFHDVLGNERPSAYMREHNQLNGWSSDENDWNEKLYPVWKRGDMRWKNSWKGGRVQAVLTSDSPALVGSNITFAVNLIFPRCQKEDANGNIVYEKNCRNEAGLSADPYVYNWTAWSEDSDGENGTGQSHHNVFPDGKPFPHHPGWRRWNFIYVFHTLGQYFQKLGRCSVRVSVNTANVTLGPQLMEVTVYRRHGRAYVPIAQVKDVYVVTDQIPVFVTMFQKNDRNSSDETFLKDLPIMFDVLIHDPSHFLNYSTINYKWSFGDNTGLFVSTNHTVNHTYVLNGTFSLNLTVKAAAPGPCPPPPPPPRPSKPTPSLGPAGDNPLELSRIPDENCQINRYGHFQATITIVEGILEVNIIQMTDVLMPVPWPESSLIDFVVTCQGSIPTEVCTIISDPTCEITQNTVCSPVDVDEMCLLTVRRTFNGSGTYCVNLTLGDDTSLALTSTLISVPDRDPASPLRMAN

B1: hGPN06-1_H1L1 VH D31A (antibody, V domains shown)
VH: QVQLVQSGAEVKKPGASVKVSCKASGYTFTANWMGWVKQRPGQGLEWIGAIDPSDSFTNYNQNFKGRVTMTVDTSISTAYMELSRLRSDDSAVYFCTRSGYYGSPKLGGDYWGQGTLVTVSS
VL: EIVLTQSPSSLSASVGDRVTITCSASSSISYMHWYQQKSGTAPKLLIYSTSNLASGVPSRFSGSGSGTDFTFTISSLQPEDAATYYCHQWNSYPCTFGGGTKLEIK
B2: hGPN06-1_H1L1 VH F64A (antibody, V domains shown)
VH: B1 VH with A31D, F64A
VL: B1 VL
B3: hGPN06-1_H1L1 VH F57A (antibody, V domains shown)
VH: B1 VH with A31D, F57A
VL: B1 VL
B4: hGPN06-1_H1L1 VH F29A (antibody, V domains shown)
VH: B1 VH with F29A, A31D
VL: B1 VL
B5: hGPN06-1_H1L1 VH D52A (antibody, V domains shown)
VH: B1 VH with A31D, D52A
VL: B1 VL
B6: hGPN18-2_H2L3 VL Y37A (antibody, V domains shown)
VH: QVQLVQSGPGLVQPTQTLTLTCSFSGFSLSTSVMGVGWIRQPSGKGLEWLADIWWDDDKDYNPSLKSRLTISKDTSKNQVVLTMTNMDTVDTATYYCARTYYSNYEYYGMDYWGQGTLVTVSS
VL: DIVMTQSPDSLAVSLGERATINCRSSQTIILSNGNTALEWYQQKPGQPPKLLIYKVSNRFSGVPDRFSGSGSGTDFTLTISSLQAEDVAVYYCFQGSHVPFTFGSGTKLEIKR
B7: hGPN18-5_H2L2 (antibody, V domains shown)
VH: QVQLVQSGAEVKKPGASVKVSCKASGYTFTTYWMNWVRQAPGQGLEWIGAINPSNDYTEYNQKFKDRATMTADTSTSTVYMELSSLRSEDTAVYYCGRSYSPDYWGQGTTVTVSS
VL: DIQMTQSPSSLSASVGDRVTITCKASQNVDNHVAWFQQKPGKAPKALIYSASYRYSGVPDRFSGSGSGTDFTLTISSLQPEDFATYFCQQYKSYPFTFGGGTKLEIK
notes: humanized; also called hGPN18-5_VH2+VL2
B8: hGPN18-5_H1L3 (antibody, V domains shown)
VH: B7 VH with A68V
VL: B7 VL with F36H, S63T, T85D
notes: humanized; also called hGPN18-5_VH1+VL3; GPN18-5-VH1+VL3
B9: hGPN18-5_H3L2 (antibody, V domains shown)
VH: B7 VH with T69I, T74K
VL: B7 VL
notes: humanized; also called hGPN18-5 VH3+VL2
B10: hGPN18-5_H1L2 (antibody, V domains shown)
VH: B7 VH with A68V
VL: B7 VL
notes: humanized; also called hGPN18-5_VH1+VL2
B11: hGPN18-5_H2L3 (antibody, V domains shown)
VH: B7 VH
VL: B7 VL with F36H, S63T, T85D
notes: humanized; also called hGPN18-5_VH2+VL3; GPN18-5-VH2+VL3
B12: hGPN18-5_H2L1 (antibody, V domains shown)
VH: B7 VH
VL: B7 VL with D60S
notes: humanized; also called hGPN18-5_VH2+VL1

Residue numbers refer to the chain shown, from its start. In names and notes the source's numbering stands.

The target of the first assay is T1, recombinant human soluble gpNMB …. The experiment in a line: antigen ELISA.
On to B1, for which the EC50 was 0.515 nM.
On to B2, for which the concentration giving a half-maximal response (EC50) came out at 0.448 nM.
Regarding B3, the EC50 is 32.5 nM.
As for B4, the EC50 was determined as 4.8 nM.
As to B5, the EC50 worked out at 2.79 nM.

The target is the same in a further assay. Briefly: antigen ELISA. This is another data set of the same source.
For the molecule B6, the EC50 worked out at 27.1 nM.

Another assay has the same target. The experiment in a line: antigen ELISA, vs hGPN06-1_H1L1.
On to B1, for which the Relative binding activity amounted to 1.26.
For the molecule B2, the Relative binding activity stood at 1.11.
For B3, the Relative binding activity was 0.09.
With B4, the Relative binding activity came to 0.54.
For the molecule B5, the Relative binding activity was 0.51.

The target is the same in the next assay. The experiment in a line: antigen ELISA, vs hGPN18-2_H2L3.
For the molecule B6, the Relative binding activity came to 0.37.

A further assay deals with T2, human gpNMB (Human Osteoactivin, …). The experiment in a line: SPR Biacore 8K, antibody captured on protein A, gpNMB as analyte.
Molecule B7 returned a Kd of 763 nM, a koff of 0.00403 s⁻¹ and a kon of 5280 M⁻¹ s⁻¹.
In turn, B8 showed a Kd of 214 nM, a koff of 0.00153 s⁻¹ and a kon of 7150 M⁻¹ s⁻¹.
The molecule B9 gave a Kd of 548 nM, a koff of 0.00436 s⁻¹ and an on-rate (kon) of 7950 M⁻¹ s⁻¹.
On the same counts, the results for B10 are 423 nM, 0.00396 s⁻¹ and 9380 M⁻¹ s⁻¹.
As for B11, binding was characterised by a dissociation constant (Kd) of 190 nM, the koff amounted to 0.00148 s⁻¹ and the kon was found to be 7780 M⁻¹ s⁻¹.
On the same counts, the results for B12 are 661 nM, 0.00454 s⁻¹ and 6870 M⁻¹ s⁻¹.
